# What was measured:
# [1] = target: Insoluble cross-linked fibrin / plasma-derived blood clot (Homo sapiens, UniProt P02671-2;P02675;P02679-2 P02671-2:36-644,P02675:45-491,P02679-2:27-437); assay: qPCR-based binding assay; settings: tags: clot prepared from citrated plasma plus CaCl2
# [2] = target: T1, D-dimer (TGpr1; fibrin clot degradation product DD) (UniProt P02671;P02675;P02679-2 P02671:124-225,P02675:164-491,P02679-2:89-437); assay: ELONA; 100 nM aptamer; settings: chain copies: 2; label: 5' FAM (ELONA and imaging)
# T1 sequence (P02671 124-225, chain 1 of 3): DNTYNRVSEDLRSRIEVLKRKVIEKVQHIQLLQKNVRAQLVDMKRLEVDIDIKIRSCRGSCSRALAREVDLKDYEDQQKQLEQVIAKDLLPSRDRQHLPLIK
# T1 sequence (P02675 164-491, chain 2 of 3): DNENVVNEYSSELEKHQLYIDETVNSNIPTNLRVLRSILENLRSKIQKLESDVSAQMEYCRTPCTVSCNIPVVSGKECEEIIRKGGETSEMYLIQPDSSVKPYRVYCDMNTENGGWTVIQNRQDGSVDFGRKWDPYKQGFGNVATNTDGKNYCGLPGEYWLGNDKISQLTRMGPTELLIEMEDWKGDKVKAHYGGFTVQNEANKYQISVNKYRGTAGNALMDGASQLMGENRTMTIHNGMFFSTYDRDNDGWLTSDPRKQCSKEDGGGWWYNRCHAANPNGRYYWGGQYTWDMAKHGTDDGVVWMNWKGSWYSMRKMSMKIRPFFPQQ
# T1 sequence (P02679 other isoform, or with tags, fused parts or gaps, chain 3 of 3): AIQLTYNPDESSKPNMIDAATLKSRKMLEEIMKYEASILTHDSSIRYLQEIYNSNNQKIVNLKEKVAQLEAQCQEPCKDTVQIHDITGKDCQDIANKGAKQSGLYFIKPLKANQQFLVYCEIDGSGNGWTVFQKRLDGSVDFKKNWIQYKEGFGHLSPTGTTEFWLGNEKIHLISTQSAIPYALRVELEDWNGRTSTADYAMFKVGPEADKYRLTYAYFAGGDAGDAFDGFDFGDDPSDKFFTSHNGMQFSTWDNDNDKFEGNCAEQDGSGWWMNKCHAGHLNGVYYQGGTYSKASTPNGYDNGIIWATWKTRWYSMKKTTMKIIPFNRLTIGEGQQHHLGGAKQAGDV
# Fibrinogen = Fibrinogen (UniProt P02671-2;P02675;P02679-2 P02671-2:20-644,P02675:31-491,P02679-2:27-437); assay: ELONA; 100 nM aptamer; settings: chain copies: 2; label: 5' FAM (ELONA and imaging)
# Sequence of Fibrinogen (P02671 other isoform, or with tags, fused parts or gaps, chain 1 of 3): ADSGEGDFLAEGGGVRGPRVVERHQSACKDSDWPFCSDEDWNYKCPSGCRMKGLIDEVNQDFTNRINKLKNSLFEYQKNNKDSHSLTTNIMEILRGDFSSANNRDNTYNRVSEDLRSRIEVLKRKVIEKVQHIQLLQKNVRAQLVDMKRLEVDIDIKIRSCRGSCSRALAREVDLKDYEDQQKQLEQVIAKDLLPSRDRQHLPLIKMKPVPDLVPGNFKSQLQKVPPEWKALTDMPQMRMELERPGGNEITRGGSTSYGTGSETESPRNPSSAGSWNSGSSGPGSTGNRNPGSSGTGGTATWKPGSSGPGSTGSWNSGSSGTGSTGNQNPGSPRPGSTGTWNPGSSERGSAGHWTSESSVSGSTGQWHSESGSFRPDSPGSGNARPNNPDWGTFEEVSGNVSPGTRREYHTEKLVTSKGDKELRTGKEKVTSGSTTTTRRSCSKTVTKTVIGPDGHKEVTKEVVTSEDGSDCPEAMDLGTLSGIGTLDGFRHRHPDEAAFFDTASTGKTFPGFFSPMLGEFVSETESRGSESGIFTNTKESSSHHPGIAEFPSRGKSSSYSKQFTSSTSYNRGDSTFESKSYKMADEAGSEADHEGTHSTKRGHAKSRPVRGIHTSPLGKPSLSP
# Sequence of Fibrinogen (P02675 31-491, chain 2 of 3): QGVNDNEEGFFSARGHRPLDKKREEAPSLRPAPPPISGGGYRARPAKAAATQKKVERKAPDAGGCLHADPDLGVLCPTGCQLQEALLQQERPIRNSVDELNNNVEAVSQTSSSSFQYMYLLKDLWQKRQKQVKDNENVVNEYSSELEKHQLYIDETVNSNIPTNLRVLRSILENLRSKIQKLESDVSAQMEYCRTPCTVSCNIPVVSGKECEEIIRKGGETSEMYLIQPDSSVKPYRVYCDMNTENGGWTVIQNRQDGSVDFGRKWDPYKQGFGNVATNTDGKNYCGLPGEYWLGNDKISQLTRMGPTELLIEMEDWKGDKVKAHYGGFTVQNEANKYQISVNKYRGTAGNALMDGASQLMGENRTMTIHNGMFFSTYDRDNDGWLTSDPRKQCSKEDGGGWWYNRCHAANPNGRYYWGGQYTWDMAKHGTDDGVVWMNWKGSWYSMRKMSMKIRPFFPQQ
# Sequence of Fibrinogen (P02679 other isoform, or with tags, fused parts or gaps, chain 3 of 3): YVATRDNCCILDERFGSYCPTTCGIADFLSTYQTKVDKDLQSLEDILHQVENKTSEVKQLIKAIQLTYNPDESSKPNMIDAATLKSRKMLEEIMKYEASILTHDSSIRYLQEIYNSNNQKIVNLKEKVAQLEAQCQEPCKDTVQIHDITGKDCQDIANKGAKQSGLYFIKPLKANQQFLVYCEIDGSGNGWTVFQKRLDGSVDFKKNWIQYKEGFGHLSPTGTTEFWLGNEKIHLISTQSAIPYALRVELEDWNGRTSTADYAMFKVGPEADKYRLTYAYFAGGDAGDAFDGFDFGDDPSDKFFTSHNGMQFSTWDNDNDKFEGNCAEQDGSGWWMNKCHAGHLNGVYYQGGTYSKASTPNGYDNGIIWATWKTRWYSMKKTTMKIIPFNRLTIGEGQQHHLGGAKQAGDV
# [3] = target: T1, D-dimer (TGpr1; fibrin clot degradation …); assay: ELONA; considered non-specific; settings: chain copies: 2; label: 5' biotin
# [4] = target: T1, D-dimer (TGpr1; fibrin clot degradation …); assay: ELONA; settings: chain copies: 2
# [5] = target: T1, D-dimer (TGpr1; fibrin clot degradation …); assay: ELONA; TGpr1/SUBpr1 binding ratio, 500 nM aptamer; settings: chain copies: 2
# Description: FIG. 6 is a graph of the relative fluorescence of five aptamers to TGpr-1 protein and SUBpr-1 protein. The test was performed with an ELONA method with fixed aptamer concentration (500 nM) and protein amount (2 ug/well). *p<0.01.
# [6] = target: T1, D-dimer (TGpr1; fibrin clot degradation …); assay: ELONA; unit printed as Nm; settings: chain copies: 2
# Sequence of Insoluble cross-linked fibrin / plasma-derived blood clot (P02671 other isoform, or with tags, fused parts or gaps, chain 1 of 3): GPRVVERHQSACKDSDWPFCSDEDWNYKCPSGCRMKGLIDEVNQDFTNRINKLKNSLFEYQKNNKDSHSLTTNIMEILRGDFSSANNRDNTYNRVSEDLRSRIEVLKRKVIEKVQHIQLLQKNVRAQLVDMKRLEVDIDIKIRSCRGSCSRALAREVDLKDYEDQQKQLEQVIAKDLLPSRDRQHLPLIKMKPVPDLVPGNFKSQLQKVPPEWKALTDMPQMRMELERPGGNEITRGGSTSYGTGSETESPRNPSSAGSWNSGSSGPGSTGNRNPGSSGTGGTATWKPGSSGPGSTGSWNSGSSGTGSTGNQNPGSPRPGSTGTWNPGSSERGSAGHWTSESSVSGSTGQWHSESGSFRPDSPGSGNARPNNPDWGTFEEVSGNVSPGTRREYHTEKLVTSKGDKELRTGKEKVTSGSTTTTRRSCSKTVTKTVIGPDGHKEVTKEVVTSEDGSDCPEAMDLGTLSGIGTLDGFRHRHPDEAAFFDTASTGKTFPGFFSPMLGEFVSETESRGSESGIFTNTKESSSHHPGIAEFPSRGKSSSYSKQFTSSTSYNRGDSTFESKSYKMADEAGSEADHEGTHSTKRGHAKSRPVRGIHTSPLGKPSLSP
# Sequence of Insoluble cross-linked fibrin / plasma-derived blood clot (P02675 45-491, chain 2 of 3): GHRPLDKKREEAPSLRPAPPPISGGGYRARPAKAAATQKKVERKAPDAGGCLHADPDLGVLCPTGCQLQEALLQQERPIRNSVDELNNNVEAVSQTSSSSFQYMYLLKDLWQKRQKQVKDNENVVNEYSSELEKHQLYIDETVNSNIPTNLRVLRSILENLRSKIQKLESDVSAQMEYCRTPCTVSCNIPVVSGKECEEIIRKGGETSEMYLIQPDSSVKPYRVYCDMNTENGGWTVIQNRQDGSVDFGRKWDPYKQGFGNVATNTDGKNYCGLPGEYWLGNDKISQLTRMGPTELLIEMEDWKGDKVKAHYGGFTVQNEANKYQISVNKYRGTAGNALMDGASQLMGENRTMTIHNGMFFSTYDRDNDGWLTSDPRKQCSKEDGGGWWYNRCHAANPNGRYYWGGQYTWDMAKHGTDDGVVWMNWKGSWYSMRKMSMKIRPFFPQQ
binder,measurement,setting,value
RNV604 (ssDNA) DNA: GGACAGGACCACACCCAGCGGATACCTGAAGCTGGCCCACATTTATCTACGCGATATATTGGCTCCTGTGTGTCGCTTTGT,binding result,[1],binds
RNV603 (ssDNA) DNA: GGACAGGACCACACCCAGCGTGCGTGAAATTCGGGGCATGGTTAGGATAGGTAATATTTTGGCTCCTGTGTGTCGCTTTGT,binding result,[1],binds
RNV605 (ssDNA) DNA: GGACAGGACCACACCCAGCGATAATTAGGCATCCGGTCGCCAACCTTGGAGAAACTATCTGGCTCCTGTGTGTCGCTTTGT,binding result,[2],no binding
same,binding result,Fibrinogen,no binding
AP1 (ssDNA) DNA: ACAAAGCGACACACAGGAGCCCGGTCGGCGGGGGGGCGGGTGGAGAACGAGGTAGGGGTCAGGACAGGACCACACCCAGCG,Kd,[3],> 1000 nM
AP3 (ssDNA) DNA: ACAAAGCGACACACAGGAGCCCGGTCGGCGGGTGGGCGGGTGGAGAACGAGGTAGGGGTCAGGACAGGACCACACCCAGCG,Kd,[3],> 1000 nM
EM1 (ssDNA) DNA: ACAAAGCGACACACAGGAGCCCAATGATGCTGTTATGGCGCTTTGTGGACAGGACCACACCCAGCG,Kd,[3],> 1000 nM
RNV602 (ssDNA) DNA: GGACAGGACCACACCCAGCGTAATAATATGGGGCTTGCGGTCCCCGATTTTTATGCACACGGCTCCTGTGTGTCGCTTTGT,binding result,[2],no binding
same,binding result,Fibrinogen,no binding
RNV606 (ssDNA) DNA: GGACAGGACCACACCCAGCGGATAACTAGGCACCCGGTGTCGTTATTATGACAAGATATTGGCTCCTGTGTGTCGCTTTGT,binding result,[1],binds
RNV607 (ssDNA) DNA: GGACAGGACCACACCCAGCGAGGAAATATTTAGGCACCCGGTCTCTGAAAATATTGTGCTGGCTCCTGTGTGTCGCTTTGT,binding result,[1],binds
ACAGTGTGGGCGGGCGGGTGGTTTGGAGCTGGTAGCGGTA (ssDNA) [AP10-01],Kd,[4],54 nM
same,binding signal,[5],4.21 ratio
AAGGGAAAGTGTATACACTATGGCT (ssDNA) [EM9-02],binding signal,[5],1.85 ratio
AP10-01-81 (ssDNA) DNA: GGACAGGACCACACCCAGCGACAGTGTGGGCGGGCGGGTGGTTTGGAGCTGGTAGCGGTAGGCTCCTGTGTGTCGCTTTGT,Kd,[6],59 nM

# Source: US20220290149, “METHOD OF DETECTION OF FIBRIN CLOTS” (I-ZUM-X PTY LTD, published 2022)
